Results as given in US11110115B2, “Nucleic acid molecule with anti-inflammatory and anti-coagulant and organ-protective properties” (APTAHEM AB, priority 2017, dated 2021).

Experiments:
[1] = test system: CD11b+CD14+ white blood cells; test: Flow cytometry of CD11b and CD14 on white blood cells after LPS injection; format: in vivo, C57BL/6 mice; settings: 2 h after LPS
Protocol: Female C57BL/6 mice (Taconic Biosciences) were 8 weeks of age at the start of the study. Animals had free access to autoclaved and acidified drinking water. Animals were housed under standard laboratory conditions, air conditioned and filtered with adequate fresh air supply. Animals were kept in a climate controlled environment.
SEQ ID NO:2 (Biospring) (100 mg) was dissolved in 5 ml saline to form a stock solution of 20 mg/ml. Vehicle is saline solution.
Dexamethasone stock was prepared by mixing dexamethasone and beta-cyclodextrin at a 4:96 ratio, solubilized in PBS at 2 mg dexamethasone/mL and stored at −20° C. Dosing solution of dexamethasone was prepared by diluting the stock solution to 1 mg/mL with PBS. Dexamethasone administered at 5 to 10 mg/kg, i.p. is used as a positive control for suppression of the immune response.
Two hours after LPS injection mice were bled and blood samples were taken. Flow cytometry study was performed on BD FACSCalibur (lasers: 488 nm; 635 nm and UV). In our study we measured the expression of integrin Mac-1 (CD11b/18) on leukocytes by means of flow cytometry. Expression of CD11b on all leukocytes monocytes and granulocytes were assessed by flow cytometry using double fluorescence staining (CD 45/CD11b).

[2] = Fibrinogen and D-dimer analysis of plasma in LPS-induced shock; format: in vivo, C57BL/6 mice; settings: blood at Hour 28
Protocol: In this study, female C57BL/6 mice of 10-12 weeks old (Taconic Biosciences) were used. Animals had free access to autoclaved and acidified drinking water. Animals were housed under standard laboratory conditions, air conditioned and filtered with adequate fresh air supply. Animals were kept in a climate-controlled environment. Lipopolysaccharide (LPS) from E. coli (O111:B4) was diluted in PBS. SEQ ID NO:2 was stored in powder form at 4° C. until use. Powder was added to saline and vortexed into solution to prepare SEQ ID NO:2 stock solution. […] For all other groups, LPS was injected intraperitoneally at 10 mg/kg. Mice were intravenously injected 15 minutes and 60 minutes after LPS administration with SEQ ID NO:2 at concentrations of 10, 25, 50 and 100 mg/kg. Except group 7, which was intravenously injected once at 15 minutes and once at 120 minutes after LPS administration. Blood collected at Hour 28 was analysed for fibrinogen and D-dimer analysis from citrated plasma performed by IDEXX Laboratories, Inc. (N. Grafton, Mass.). Hook Laboratories attempted to collect enough blood to run each analysis 5 times for each group, but in one case (citrated plasma for D-dimer, for Group 4) we were able to collect only enough blood to run the analysis 4 times.

[3] = Arteriovenous shunt model, thrombus weight; format: in vivo, Sprague-Dawley male rats; settings: SEQ ID NO:2 33.3 mg/kg i.v. 5 min prior; Rivaroxaban 10 mg/kg p.o. 90 min prior; 15 min extracorporeal circulation
Protocol: This study was conducted at Shanghai WuXi AppTec Co., Ltd., and in accordance with WuXi IACUC standard animal procedures along with the IACUC guidelines that are in compliance with the Animal Welfare Act, the Guide for the Care and Use of Laboratory Animals, and the Office of Laboratory Animal Welfare (OLAW). Sprague-Dawley male rats with body weight ranging between 150-200 g (Vital River; Bejing, P.R. China) were fed ad libitum a rodent diet. Animals had free access to autoclaved and acidified drinking water. Animals were housed under standard laboratory conditions, air conditioned and filtered with adequate fresh air supply. Animals were kept in a climate controlled environment. Rivaroxaban (10 mg/kg) has been dissolved in water and stored at 4° C. 20 mg SEQ ID NO:2 (Biospring) was dissolved in 3 ml Saline, vortexed for 5 min., sonicated with a water bath ultrasonic for 1 minute to achieve 6.66 mg/ml SEQ ID NO:2. The animals were assigned to 3 dosing groups according to the body weight (see table 2). […] Extracorporeal circulation was maintained for 15 min, the thrombus weight formed on the thread was calculated by subtracting the average weight of the rough nylon thread. Significance of difference between control and treated groups was analyzed by performing analysis of variance (ANOVA) by EXCEL office software.

[4] = Comparable ex vivo APTT study, non-human primate

B1: SEQ ID NO:2: nucleic acid sequence of SEQ ID NO:1 in which each C and U is fluorinated to increase stability in plasma (nucleic acid)
chain: GGGAAUUCGAGCUCGGUACCAACAAUACGACUACACCAUCAAAAGUAUUAUCUUGCAUCGAAGGUUGGCACGUAGCAAGCUCUGCAGUCG
modifications: fluorinated C and U; (6)..(7) uracil is fluorinated; (8)..(8) cytosine is fluorinated; (12)..(12) cytosine is fluorinated; (13)..(13) uracil is fluorinated; (14)..(14) cytosine is fluorinated; (17)..(17) uracil is fluorinated; (19)..(20) cytosine is fluorinated; (23)..(23) cytosine is fluorinated; (26)..(26) uracil is fluorinated; (28)..(28) cytosine is fluorinated; (31)..(31) cytosine is fluorinated; (32)
[1]; 5 mg/kg i.v.
  expression of CD11b compared to vehicle group: similar
  proportion of CD11b+CD14+ cells in white blood cells compared to vehicle group: similar
[1]; 25 mg/kg i.v.
  proportion of CD11b+CD14+ cells in white blood cells compared to vehicle group: significantly lower
[1]; 25 mg/kg i.v., not statistically significant
  expression of CD11b compared to vehicle group: lower
[1]; 50 mg/kg i.v.
  lower expression of CD11b, difference to vehicle group: statistically significant
  proportion of CD11b+CD14+ cells in white blood cells compared to vehicle group: significantly lower
[2]; 50 mg/kg at 60 and 120 minutes after LPS
  Plasma D-dimer concentrations compared to vehicle treated group: significantly lower
[2]; 50 mg/kg at 60 and 120 minutes after LPS, listed as Apta-1
  Plasma D-dimer concentrations compared to vehicle treated group: greatest reductions
[2]; 100 mg/kg at 15 and 60 min after LPS
  Plasma D-dimer concentrations compared to vehicle treated group: significantly lower
[2]; 10, 25, 50, 100 mg/kg i.v. after LPS
  D-dimer in plasma, dose dependence: reduced D-dimer in a dose dependent manner
[2]; SEQ ID NO:2 treated mice (10, 25, 50, 100 mg/kg i.v.)
  fibrinogen concentrations in plasma compared to vehicle treated mice: no significant differences
[3]
  thrombus weight, less than vehicle group: 48.1%
[4]
  positive effect on APTT: confirmed
